# Experimental data published in patent US7629440.
# Target: murine GM-CSF receptor (murine) (UniProt Q00941)
# Test: cell-based or functional assay
# UniProt Q00941, sequence (Q00941 30-388, chain 1 of 2): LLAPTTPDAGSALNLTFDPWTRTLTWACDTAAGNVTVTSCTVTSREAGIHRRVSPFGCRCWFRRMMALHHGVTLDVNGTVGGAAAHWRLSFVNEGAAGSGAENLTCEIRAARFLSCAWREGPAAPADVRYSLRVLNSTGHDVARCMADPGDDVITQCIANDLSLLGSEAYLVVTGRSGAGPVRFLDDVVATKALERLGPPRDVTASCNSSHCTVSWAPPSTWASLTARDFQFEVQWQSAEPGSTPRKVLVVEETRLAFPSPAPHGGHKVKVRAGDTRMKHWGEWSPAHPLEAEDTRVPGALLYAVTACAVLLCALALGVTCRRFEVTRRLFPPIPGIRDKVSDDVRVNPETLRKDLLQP
# UniProt Q00941, sequence (P26955 23-896, chain 2 of 2, further chain): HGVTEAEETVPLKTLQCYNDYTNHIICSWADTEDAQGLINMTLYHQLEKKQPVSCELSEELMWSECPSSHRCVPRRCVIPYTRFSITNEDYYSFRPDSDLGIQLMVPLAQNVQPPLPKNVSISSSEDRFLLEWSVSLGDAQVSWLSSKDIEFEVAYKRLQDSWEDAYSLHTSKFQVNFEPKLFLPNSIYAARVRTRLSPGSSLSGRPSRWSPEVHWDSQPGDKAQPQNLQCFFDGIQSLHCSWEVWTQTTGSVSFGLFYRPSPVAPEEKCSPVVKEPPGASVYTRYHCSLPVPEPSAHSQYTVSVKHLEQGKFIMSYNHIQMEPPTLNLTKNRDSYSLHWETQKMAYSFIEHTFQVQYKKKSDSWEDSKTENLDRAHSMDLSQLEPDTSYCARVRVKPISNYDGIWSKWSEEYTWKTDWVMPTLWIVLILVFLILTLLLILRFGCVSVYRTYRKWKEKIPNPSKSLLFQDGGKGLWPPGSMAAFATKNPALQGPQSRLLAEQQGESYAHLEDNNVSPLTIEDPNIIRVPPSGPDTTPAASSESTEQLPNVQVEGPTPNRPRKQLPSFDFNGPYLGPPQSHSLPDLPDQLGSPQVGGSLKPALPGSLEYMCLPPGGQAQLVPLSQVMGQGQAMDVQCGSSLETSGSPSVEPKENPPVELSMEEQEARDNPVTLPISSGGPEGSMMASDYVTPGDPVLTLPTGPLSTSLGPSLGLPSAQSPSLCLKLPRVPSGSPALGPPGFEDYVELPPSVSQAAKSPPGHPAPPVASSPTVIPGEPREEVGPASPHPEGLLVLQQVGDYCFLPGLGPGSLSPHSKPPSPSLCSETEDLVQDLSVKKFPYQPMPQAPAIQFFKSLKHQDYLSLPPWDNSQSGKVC
substance,measurement,value
murine GM-CSF fused to the S. cerevisiae Gas1 GPI modification signal sequence (GPI-GM-CSF) (from UniProt P01587 18-141; P22146 470-528) (other; the values are: proliferation increase vs soluble GM-CSF),"proliferation of the GM-CSF dependent FDC-P1 cell line (Biotrak BrdU cell proliferation ELISA), 10 ng per well",25%
